Here are results for 34 variants from the Human Domainome abundance scans (Beltran et al. 2025).

The labels stand for the following.
B1: Ankyrin-2, residues 3571 to 3650; numbered along this chain, Q01484 (parent)
chain: ERLAYIADHLGFSWTELARELDFTEEQIHQIRIENPNSLQDQSHALLKYWLERDGKHATDTNLVECLTKINRMDIVHLME

± gives the uncertainty stated by the source.

Variants of B1 are the subject of the data set. The data set can be described thus: abundance fitness (aPCA) (normalised: wild type 0, dead -1); higher = more abundant; growth selection in yeast, the domain comes from the species named. To be noted: Homo sapiens.
As to ERLAYIADHLGFSWTELARELDFTEEQIHQIRIENPNSLQDQSHALLKYWLERAGKHATDTNLVECLTKINRMDIVHLME [D54A], the abundance fitness was -0.022 ± 0.069.
On to ERLAYIADHLGFSWTELARELDFTEEQIHQIRIENPNSLQDQSHALLKYWLERNGKHATDTNLVECLTKINRMDIVHLME [D54N], for which the abundance fitness was -0.033 ± 0.13.
With ERLAYIADHLGFSWTELARELDFTEEQIHQIRIENPNSLQDQSHALLKYWLERSGKHATDTNLVECLTKINRMDIVHLME [D54S] the figure was -0.095 ± 0.045; with ERLAYIADHLGFSWTELARELDFTEEQIHQIRIENPNSLQDQSHALLKYWLERCGKHATDTNLVECLTKINRMDIVHLME [D54C], -0.134 ± 0.15.
With ERLAYIADHLGFSWTELARELDFTEEQIHQIRIENPNSLQDQSHALLKYWLERGGKHATDTNLVECLTKINRMDIVHLME [D54G] the figure was 0.003 ± 0.061.
Consider ERLAYIADHLGFSWTELARELDFTEEQIHQIRIENPNSLQDQSHALLKYWLERTGKHATDTNLVECLTKINRMDIVHLME [D54T], for which the abundance fitness worked out at 0.018 ± 0.095.
For ERLAYIADHLGFSWTELARELDFTEEQIHQIRIENPNSLQDQSHALLKYWLERWGKHATDTNLVECLTKINRMDIVHLME [D54W], the abundance fitness is -0.041 ± 0.1.
With ERLAYIADHLGFSWTELARELDFTEEQIHQIRIENPNSLQDQSHALLKYWLERQGKHATDTNLVECLTKINRMDIVHLME [D54Q] the figure was -0.111 ± 0.11.
Turning to ERLAYIADHLGFSWTELARELDFTEEQIHQIRIENPNSLQDQSHALLKYWLERKGKHATDTNLVECLTKINRMDIVHLME [D54K], the abundance fitness is 0.097 ± 0.17.
In the case of ERLAYIADHLGFSWTELARELDFTEEQIHQIRIENPNSLQDQSHALLKYWLERMGKHATDTNLVECLTKINRMDIVHLME [D54M], the abundance fitness is -0.013 ± 0.1.
The result for ERLAYIADHLGFSWTELARELDFTEEQIHQIRIENPNSLQDQSHALLKYWLERPGKHATDTNLVECLTKINRMDIVHLME [D54P] reads -0.144 ± 0.058.
The result for ERLAYIADHLGFSWTELARELDFTEEQIHQIRIENPNSLQDQSHALLKYWLERIGKHATDTNLVECLTKINRMDIVHLME [D54I] reads -0.354 ± 0.13; that for ERLAYIADHLGFSWTELARELDFTEEQIHQIRIENPNSLQDQSHALLKYWLERYGKHATDTNLVECLTKINRMDIVHLME [D54Y], 0.008 ± 0.091.
Turning to ERLAYIADHLGFSWTELARELDFTEEQIHQIRIENPNSLQDQSHALLKYWLERHGKHATDTNLVECLTKINRMDIVHLME [D54H], the abundance fitness stood at 0.025 ± 0.1.
Regarding ERLAYIADHLGFSWTELARELDFTEEQIHQIRIENPNSLQDQSHALLKYWLERFGKHATDTNLVECLTKINRMDIVHLME [D54F], the abundance fitness came out at 0.01 ± 0.12.
For ERLAYIADHLGFSWTELARELDFTEEQIHQIRIENPNSLQDQSHALLKYWLEREGKHATDTNLVECLTKINRMDIVHLME [D54E], the abundance fitness was -0.02 ± 0.13.
Turning to ERLAYIADHLGFSWTELARELDFTEEQIHQIRIENPNSLQDQSHALLKYWLERVGKHATDTNLVECLTKINRMDIVHLME [D54V], the abundance fitness is -0.024 ± 0.071.
As to ERLAYIADHLGFSWTELARELDFTEEQIHQIRIENPNSLQDQSHALLKYWLERLGKHATDTNLVECLTKINRMDIVHLME [D54L], the abundance fitness is -0.035 ± 0.058.
Take ERLAYIADHLGFSWTELARELDFTEEQIHQIRIENPNSLQDQSHALLKYWLERRGKHATDTNLVECLTKINRMDIVHLME [D54R]: the abundance fitness is -0.073 ± 0.063.
Take ERLAYIADHLGFSWTELARELDFTEEQIHQIRIENPNSLQDQSHALLKYWWERDGKHATDTNLVECLTKINRMDIVHLME [L51W]: the abundance fitness is -0.106 ± 0.17.
With ERLAYIADHLGFSWTELARELDFTEEQIHQIRIENPNSLQDQSHALLKYWAERDGKHATDTNLVECLTKINRMDIVHLME [L51A] the figure was -0.165 ± 0.1.
In the case of ERLAYIADHLGFSWTELARELDFTEEQIHQIRIENPNSLQDQSHALLKYWTERDGKHATDTNLVECLTKINRMDIVHLME [L51T], the abundance fitness was 0.017 ± 0.17.
The result for ERLAYIADHLGFSWTELARELDFTEEQIHQIRIENPNSLQDQSHALLKYWQERDGKHATDTNLVECLTKINRMDIVHLME [L51Q] reads 0.104 ± 0.13; that for ERLAYIADHLGFSWTELARELDFTEEQIHQIRIENPNSLQDQSHALLKYWRERDGKHATDTNLVECLTKINRMDIVHLME [L51R], -0.072 ± 0.065.
The result for ERLAYIADHLGFSWTELARELDFTEEQIHQIRIENPNSLQDQSHALLKYWIERDGKHATDTNLVECLTKINRMDIVHLME [L51I] reads -0.015 ± 0.2; that for ERLAYIADHLGFSWTELARELDFTEEQIHQIRIENPNSLQDQSHALLKYWEERDGKHATDTNLVECLTKINRMDIVHLME [L51E], -0.111 ± 0.22; that for ERLAYIADHLGFSWTELARELDFTEEQIHQIRIENPNSLQDQSHALLKYWPERDGKHATDTNLVECLTKINRMDIVHLME [L51P], -0.272 ± 0.079.
Take ERLAYIADHLGFSWTELARELDFTEEQIHQIRIENPNSLQDQSHALLKYWCERDGKHATDTNLVECLTKINRMDIVHLME [L51C]: the abundance fitness was -0.236 ± 0.16.
Regarding ERLAYIADHLGFSWTELARELDFTEEQIHQIRIENPNSLQDQSHALLKYWYERDGKHATDTNLVECLTKINRMDIVHLME [L51Y], the abundance fitness stood at 0.031 ± 0.091.
With ERLAYIADHLGFSWTELARELDFTEEQIHQIRIENPNSLQDQSHALLKYWVERDGKHATDTNLVECLTKINRMDIVHLME [L51V], the abundance fitness is -0.087 ± 0.1.
For the variant ERLAYIADHLGFSWTELARELDFTEEQIHQIRIENPNSLQDQSHALLKYWHERDGKHATDTNLVECLTKINRMDIVHLME [L51H], the abundance fitness was -0.034 ± 0.28.
Turning to ERLAYIADHLGFSWTELARELDFTEEQIHQIRIENPNSLQDQSHALLKYWGERDGKHATDTNLVECLTKINRMDIVHLME [L51G], the abundance fitness was -0.154 ± 0.13.
The result for ERLAYIADHLGFSWTELARELDFTEEQIHQIRIENPNSLQDQSHALLKYWNERDGKHATDTNLVECLTKINRMDIVHLME [L51N] reads -0.123 ± 0.13; that for ERLAYIADHLGFSWTELARELDFTEEQIHQIRIENPNSLQDQSHALLKYWSERDGKHATDTNLVECLTKINRMDIVHLME [L51S], -0.107 ± 0.075.
